In patent publication US20230408517A1 (BIO TECHNE, published 2023):
Read-outs that look alike come from different tables or passages of the source.

Legend:
[1] = molecular target: T1, recombinant SARS-CoV-2 spike S1 RBD (R319-F541), C-terminal 6-His (SARS-CoV-2, UniProt P0DTC2 319-541); assay: sandwich dipstick, detector Ab4-AuNP
[2] = molecular target: T2, UK variant RBD (R319-F541 with N501Y), C-terminal 6-His (SARS-CoV-2, UniProt P0DTC2 319-541); assay: sandwich dipstick, detector Ab4-AuNP
[3] = molecular target: T3, SA variant RBD (R319-F541 with K417N, E484K, N501Y), C-terminal 6-His (SARS-CoV-2, UniProt P0DTC2 319-541); assay: sandwich dipstick, detector Ab4-AuNP
[4] = molecular target: T4, BR P.1 variant RBD (R319-F541 with K417T, E484K, N501Y), C-terminal 6-His (SARS-CoV-2, UniProt P0DTC2 319-541); assay: sandwich dipstick, detector Ab4-AuNP
[5] = molecular target: T1, recombinant SARS-CoV-2 spike S1 RBD …; assay: sandwich dipstick, detector Ab5-AuNP
[6] = molecular target: T2, UK variant RBD (R319-F541 with N501Y), …; assay: sandwich dipstick, detector Ab5-AuNP
[7] = molecular target: T3, SA variant RBD (R319-F541 with K417N, …); assay: sandwich dipstick, detector Ab5-AuNP
[8] = molecular target: T4, BR P.1 variant RBD (R319-F541 with …); assay: sandwich dipstick, detector Ab5-AuNP
[9] = molecular target: T1, recombinant SARS-CoV-2 spike S1 RBD …; assay: lateral flow NC50, RBD-AuNP vs immobilised ACE2
[10] = molecular target: T2, UK variant RBD (R319-F541 with N501Y), …; assay: lateral flow NC50, RBD-AuNP vs immobilised ACE2
[11] = molecular target: T3, SA variant RBD (R319-F541 with K417N, …); assay: lateral flow NC50, RBD-AuNP vs immobilised ACE2
[12] = molecular target: T4, BR P.1 variant RBD (R319-F541 with …); assay: lateral flow NC50, RBD-AuNP vs immobilised ACE2
[13] = molecular target: T1, recombinant SARS-CoV-2 spike S1 RBD …; assay: lateral flow NC50, RBD-AuNP vs immobilised ACE2; remark: listed apart in the source
[14] = molecular target: T2, UK variant RBD (R319-F541 with N501Y), …; assay: lateral flow NC50, RBD-AuNP vs immobilised ACE2; remark: listed apart in the source
[15] = molecular target: T3, SA variant RBD (R319-F541 with K417N, …); assay: lateral flow NC50, RBD-AuNP vs immobilised ACE2; remark: listed apart in the source
[16] = molecular target: T4, BR P.1 variant RBD (R319-F541 with …); assay: lateral flow NC50, RBD-AuNP vs immobilised ACE2; remark: listed apart in the source
[17] = molecular target: BR P.2 variant RBD (R319-F541 with E484K) (SARS-CoV-2, UniProt P0DTC2 319-541); assay: lateral flow NC50, RBD-AuNP vs immobilised ACE2
[18] = molecular target: K417E RBD (R319-F541 with K417E) (SARS-CoV-2, UniProt P0DTC2 319-541); assay: lateral flow NC50, RBD-AuNP vs immobilised ACE2
[19] = molecular target: T478K RBD (R319-F541 with T478K) (SARS-CoV-2, UniProt P0DTC2 319-541); assay: lateral flow NC50, RBD-AuNP vs immobilised ACE2
[20] = molecular target: T1, recombinant SARS-CoV-2 spike S1 RBD …; assay: flow cytometry, blocking of binding to hACE-2 cells
[21] = molecular target: T1, recombinant SARS-CoV-2 spike S1 RBD …; assay: as above; remark: listed apart in the source
[22] = molecular target: T4, BR P.1 variant RBD (R319-F541 with …); assay: as above
[23] = molecular target: T5, IN v2 variant RBD (R319-F541 with L452R, T478K) (SARS-CoV-2, UniProt P0DTC2 319-541); assay: as above
[24] = molecular target: rSARS2 RBD aa319-541, N439K, C-His (SARS-CoV-2, UniProt P0DTC2 319-541); assay: as above
[25] = molecular target: rSARS2-B.1.1.7 S aa16-1211 2x aa mut., C-His (SARS-CoV-2, UniProt P0DTC2 16-1211); assay: as above
[26] = molecular target: rSARS2-B.1.1.7 S aa16-1211 4x aa mut., C-His (SARS-CoV-2, UniProt P0DTC2 16-1211); assay: as above
[27] = molecular target: rSARS2-B.1.617.2 S aa16-1211 10+4x aa mut., C-His (SARS-CoV-2, UniProt P0DTC2 16-1211); assay: as above
[28] = molecular target: L452R RBD (R319-F541 with L452R) (SARS-CoV-2, UniProt P0DTC2 319-541); assay: dipstick, adsorbed RBD spots, Ab 10 µg/mL, GAM-AuNP
[29] = molecular target: IN v1 variant RBD (R319-F541 with L452R, E484Q) (SARS-CoV-2, UniProt P0DTC2 319-541); assay: lateral flow assay: blocking of RBD-AuNP capture by ACE2
[30] = molecular target: T5, IN v2 variant RBD (R319-F541 with …); assay: as above

B1: 1035224 (antibody, V domains shown)
VH: EVQLQQSGAEFVRPGALVKLSCKASGFNIKDDYMHWVKQRPEQGLEWIGWIDPENGNSIYDPKFQGKASITADTSSNTAYLQLSSLTSEDTAVYYCARGEYFGSGSFAYWGQGTLVTVSA
VL: QIVLTQSPAIMSASPGEKVTISCSASSSVSYMYWYQQKPGSSPKPWIYRTSNLASGVPARFSGSGSGTSYSLTISSMEAEDAATYYCQQYHSYPYMYTFGGGTKLEIK
[1]
  detection sensitivity: 0.01 µg/mL
[2]
  detection sensitivity: 0.01 µg/mL
[3]
  detection sensitivity: 0.01 µg/mL
[4]
  detection sensitivity: 0.01 µg/mL
[5]
  detection sensitivity: 0.001 µg/mL
[6]
  detection sensitivity: 0.001 µg/mL
[7]
  detection sensitivity: 0.001 µg/mL
[8]
  detection sensitivity: 0.001 µg/mL
[9]
  IC50: 0.66 µg/mL
[10]
  IC50: 2.72 µg/mL
[11]
  IC50: 1.14 µg/mL
[12]
  IC50: 1.11 µg/mL
[13]
  IC50: 0.66 µg/mL
[14]
  IC50: 2.72 µg/mL
[15]
  IC50: 1.14 µg/mL
[16]
  IC50: 1.11 µg/mL
[17]
  IC50: 0.54 µg/mL
[18]
  IC50: 0.38 µg/mL
[19]
  IC50: 0.76 µg/mL
[20]
  percent blocking: 99.1%
[21]
  percent blocking: 99.1%
[22]
  percent blocking: 88%
[23]
  percent blocking: 0%
[24]
  percent blocking: 96.1%
[25]
  percent blocking: 33.9%
[26]
  percent blocking: 74.1%
[27]
  percent blocking: 0%
[28]
  binding result: no binding (tested: 10 µg/mL)
[29]
  binding result: no binding (tested: 10 µg/mL)
[30]
  binding result: no binding (tested: 10 µg/mL)
